Patent US20120045393A1 (priority 2009, published 2012)
Read-outs that look alike come from different tables or passages of the source. Non-standard residues stand in square brackets, D forms with d. Primed or numbered codes have the meaning given here. DO3A10CM(3) = metal chelator group attached at the N-terminus (X in table rows); DO3A10CM″ = chelating group at the N-terminus (X in the sequence tables); Bpa = N[C@@H](Cc1ccc(C(=O)c2ccccc2)cc1)C(=O)O; d2Nal = N[C@H](Cc1ccc2ccccc2c1)C(=O)O; pGlu = O=C1CC[C@@H](C(=O)O)N1; DO3A10CM = not defined here; Bpa4 = non-natural residue; Ampt4 = not defined here; Tha = not defined here; azaGly = NNC(=O)O; Sar = CNCC(=O)O

Key:
liver homogenate = details: female Tac:NCr:Foxn1^nu/nu mice, 37° C., up to 60 min
[1] = tested on: LHRH binding sites on human ovarian cancer cells (EFO-27);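 also: Cell-associated radioactivity on confluent EFO-27 monolayers in 96-well plates, measured by microplate scintillation counting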
[2] = tested on: PC-3 (human prostate cancer) cells; experiment: Internalization/efflux studies in PC-3 cells; assay type: cell-based; parameters: Cell associated activity at 2 h % Efflux / Cell associated activity at 0 h % Memb / Cell associated activity at 2 h % Memb: concentration or dose not given beside the values
Description: (§1) Internalization/Efflux Studies: The internalization and efflux studies were carried out following the general procedure. Basically, ^177Lu-LHRH II or ^125I-LHRH II ([^125I-Tyr^8]BRU-2477) (75 uL, 3.0 μCi/mL) was added to the EFO-27 or PC-3 cells. The cells were incubated for 40 min at 37° C. The unbound radioactivity was washed off (4×). Following addition of fresh medium, the cells were further incubated for up to 2 h. At various time points (15, 30, 60 & 120 min) the distribution of radioactivity (membrane-bound, internalized, and efflux) was determined
To determine whether prostate cancer cells (PC-3) behave differently from EFO-27 cells, internalization and efflux studies were carried out with ^177Lu-BRU-2813 using both cell lines.

EFO-27 cells = experiment: Internalization/efflux studies in EFO-27 cells; assay type: cell-based, human
Description: as §1
The internalization and efflux of several Lu-177 labeled LHRH II analogs in EFO-27 cells have been investigated. Basically, following pre-incubation of cells with ^177Lu-LHRH II samples, the binding buffer containing the ^177Lu was replaced with fresh media without complex. The extent of initial internalization (T=0), the amount of radioactive material that remained internalized and the efflux at 0-120 min were determined. The results are shown in FIGS. 21a-f and 22a-c and in Table 25.

[3] = molecular target: LHRH binding sites on EFO-27 human ovarian cancer cells (human); experiment: competition with [125I-Tyr8]BRU-2477 on EFO-27 cells
[4] = molecular target: LHRH receptor (LHRH binding sites) on EFO-27 human ovarian cancer cells (human); experiment: competition with [125I-Tyr8]BRU-2477 for binding to EFO-27 cells
[5] = molecular target: LHRH receptor (LHRH binding sites) on EFO-27 human ovarian cancer cells (human); experiment: competition with [125I-Tyr8]BRU-2477, EFO-27 cells
[6] = molecular target: T1, LHRH binding sites on EFO-27 human ovarian cancer cells (human); experiment: competition with [125I-Tyr8]BRU-2477 on EFO-27 cells
T1 chain: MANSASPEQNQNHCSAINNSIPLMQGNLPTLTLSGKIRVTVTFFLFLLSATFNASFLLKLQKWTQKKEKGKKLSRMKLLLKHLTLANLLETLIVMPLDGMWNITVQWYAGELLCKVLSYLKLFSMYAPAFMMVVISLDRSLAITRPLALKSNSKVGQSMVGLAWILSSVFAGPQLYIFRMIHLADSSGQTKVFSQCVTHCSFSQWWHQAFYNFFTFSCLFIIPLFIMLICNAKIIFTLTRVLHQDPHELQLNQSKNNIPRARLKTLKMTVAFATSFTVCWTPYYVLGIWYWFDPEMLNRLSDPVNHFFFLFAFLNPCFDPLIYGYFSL

[7] = molecular target: T1, LHRH binding sites (presumed LHRH …); experiment: as above

Molecule: pGlu-His-Trp-Ser-His-Darg-Trp-Tyr-Ψ(CH2N)-Pro-azaGly-NH2
- not cleaved (liver homogenate): 100 ± 0 % remaining after 60 min; no metabolism

Molecule: pGlu-His-Trp-Ser-His-Darg-Trp-Tyr-Ampc4-azaGly-NH2
- not cleaved (liver homogenate): 100 ± 0 % remaining after 60 min; no metabolism

Molecule: DO3A10CM-Dnal2-Arg-Trp-Ser-His-Darg-Trp-Bpa4-Thz-azaGly-NH2
- not cleaved (liver homogenate): 98.5 ± 0.2 % remaining after 60 min; no metabolism was observed

Molecule: N=C(N)NCCC[C@H](NC(=O)[C@@H](Cc1ccc2ccccc2c1)NC(=O)CN1CCN(CC(=O)O)CCN(CC(=O)O)CCN(CC(=O)O)CC1)C(=O)N[C@@H](Cc1c[nH]c2ccccc12)C(=O)N[C@@H](CO)C(=O)N[C@@H](Cc1cnc[nH]1)C(=O)N[C@H](CCCNC(=N)N)C(=O)N[C@@H](Cc1c[nH]c2ccccc12)C(=O)N[C@@H](Cc1ccc(C(=O)c2ccccc2)cc1)C(=O)N1CCC[C@H]1C(=O)NNC(N)=O [BRU-2813, DO3A10CM-Dnal2-Arg-Trp-Ser-His-Darg-Trp-Bpa-Pro-azaGly-NH2]
- more potency than the comparator analog ([1]; BRU-2813 vs BRU-2666, BRU-2964 vs BRU-2813): 30%
- EC50 ([1]; EFO-27 cells, competition with [125I-Tyr8]BRU-2477, 90 min): 330 nM
- EC50 ([1]; Table 19: analogs used in the stabilization studies): 420 nM
- Cell associated activity at 0 h % Efflux ([2]; 0 h): 12.5%
- Cell associated activity at 0 h % Intern ([2]; 0 h, internalized): 26.2%
- Cell associated activity at 0 h % Memb ([2]; 0 h, membrane bound): 61.9%
- Cell associated activity at 2 h % Efflux ([2]; 2 h): 75.7%
- Cell associated activity at 2 h % Intern ([2]; 2 h, internalized): 7.5%
- Cell associated activity at 2 h % Memb ([2]; 2 h, membrane bound): 16.8%
- Bound % ([2]; of added): 19.26%
- Bound ([2]; per well): 44.3 fmol
- Cell associated activity at 0 h % Efflux (EFO-27 cells; 0 h): 8.8%
- Cell associated activity at 0 h % Intern (EFO-27 cells; 0 h, internalized): 24.1%
- Cell associated activity at 0 h % Memb (EFO-27 cells; 0 h, membrane bound): 66.8%
- Cell associated activity at 2 h % Efflux (EFO-27 cells; 2 h): 75.3%
- Cell associated activity at 2 h % Intern (EFO-27 cells; 2 h, internalized): 7.4%
- Cell associated activity at 2 h % Memb (EFO-27 cells; 2 h, membrane bound): 17.3%
- Bound % (EFO-27 cells; of added): 19.10%
- Bound (EFO-27 cells; per well): 40.5 fmol

Molecule: DO3A10CM-Dnal2-Arg-Trp-Ser-His-Darg-Trp-Bpa4-Ampt4-azaGly-NH2
- not cleaved (liver homogenate): 98.7 ± 0.1 % remaining after 60 min; no metabolism was observed

Molecule: DO3A10CM-Dnal2-Arg-Trp-Ser-His-Darg-Trp-Bpa4-Aze-azaGly-NH2
- fragment found (liver homogenate): lutetium complex of BRU-3064 (DO3A10CM-Dnal2-Arg-Trp-Ser-His-Darg-Trp-Bpa-OH)

Molecule: DO3A10CM-Dnal2-Arg-Trp-Ser-His-Darg-Trp-Bpa4-Ψ(CH2N)Pro-azaGly-NH2
- not cleaved (liver homogenate): 100 ± 0 % remaining after 60 min; no metabolism was observed

Molecule: DO3A10CM-Dnal2-Arg-Trp-Ser-His-Darg-Trp-Bpa4-Flp4-azaGly-NH2
- fragment found (liver homogenate): lutetium complex of BRU-3064 (DO3A10CM-Dnal2-Arg-Trp-Ser-His-Darg-Trp-Bpa-OH)

Molecule: DO3A10CM-Dnal2-Arg-Trp-Ser-His-Darg-Trp-Bpa4-Pip-azaGly-NH2
- fragment found (liver homogenate): Lu-DO3A10CM-Dnal2-Arg-Trp-Ser-His-Darg-Trp-Bpa4-Pip-OH

Molecule: XRWSHXWXXX (N-terminal DO3A10CM; Dnal2 at 1; Darg at 6; Bpa4 at 8; Pip at 9; azaGly-NH2 at 10) [BRU-2996]
- EC50 [3]: 350 nM
- EC50 [4]: 350 nM
- EC50 [5]: 350 nM

Molecule: XRWSHXWXXX (N-terminal DO3A10CM; Dnal2 at 1; Darg at 6; Bpa4 at 8; Thz at 9; azaGly-NH2 at 10) [BRU-3072]
- EC50 [3]: 160 nM
- fold improved binding against the Pro9 analog (BRU-2813) [3]: 2.5 fold
- EC50 [4]: 160 nM
- EC50 [5]: 160 nM

Molecule: XRWSHXWXXX (N-terminal DO3A10CM; Dnal2 at 1; Darg at 6; Bpa4 at 8; Aze at 9; azaGly-NH2 at 10) [BRU-2993]
- EC50 [3]: 380 nM
- EC50 [4]: 380 nM
- EC50 [5]: 380 nM

Molecule: DO3A10CM-[Sar]YWSH[dR]W[Bpa]P[azaGly]-NH2 (reading uncertain, AA2 Tyr) [BRU-2814]
- EC50 [6]: 2240 nM

B1: BRU-2994 (peptide)
peptide: XRWSHXWXXX
modifications: DO3A10CM on N-terminus; AA1 Dnal2; AA6 Darg; AA8 Bpa4; AA9 Flp4; AA10 azaGly-NH2
- EC50 [3]: 600 nM
- EC50 [4]: 600 nM
- EC50 [5]: 600 nM

Molecule: RRWSHXWXPX (DO3A10CM on N-terminus; AA6 Darg; AA8 Bpa4; AA10 azaGly-NH2, AA1 Arg, AA2 Arg) [BRU-3050]
- EC50 [6]: 310 nM

Molecule: XRWSHXW (as printed: DO3A10CM-Dnal2-Arg-Trp-Ser-His-Darg-Trp-OH) [BRU-3046]
- EC50 [4]: 15800 nM

Molecule: GHWSHXWXPX (DO3A10CM on N-terminus; AA6 Darg; AA8 Bpa4; AA10 azaGly-NH2, AA1 Gly) [BRU-2733]
- EC50 [6]: 1180 nM

Molecule: {DO3A10CM(3)}-GPHWSH[dR]W[Bpa]P[azaGly]-NH2 (AA1 Pro) [BRU-2667]
- EC50 [6]: 7290 nM

Molecule: {DO3A10CM(3)}-[Sar]HWSY[dR]L[Bpa]P[azaGly]-NH2 (AA5 Tyr, AA7 Leu) [BRU-2670]
- EC50 [7]: 8840 nM

Molecule: [pGlu]HWSH[dR]WYP[azaGly]-NH2 [BRU-2477]
- EC50 [3]: 740 nM
- EC50 [4]: 840 nM

Molecule: [pGlu]HWSH[dR]WYP[azaGly]-NH2 (also: reduced amide bond Ψ(CH2N) between Tyr8 and Pro9) [BRU-3122]
- EC50 [4]: 3130 nM

Molecule: DO3A10CM-[d2Nal]RWSH[dR]W[Bpa][Ampt4][azaGly]-NH2 (reading uncertain; also: printed as DO3A10CM-Dnal2-Arg-Trp-Ser-His-Darg-Trp-Bpa4-Ampt4-azaGly-NH2) [BRU-2995]
- EC50 [3]: 410 nM
- EC50 [4]: 410 nM
- EC50 [5]: 410 nM

B2: BRU-3081 (peptide)
peptide: XRWSHXWXPX
modifications: as printed: DO3A10CM-Dnal2-Arg-Trp-Ser-His-Darg-Trp-Bpa4-Ψ(CH2N)-Pro-azaGly-NH2 (reduced amide bond between 8 and 9)
- EC50 [4]: 300 nM
- EC50 [5]: 300 nM

Molecule: DO3A10CM-[d2Nal]RWSL[dR]W[Bpa]P[azaGly]-NH2 (reading uncertain, AA5 Leu) [BRU-3029]
- EC50 [7]: 1210 nM

B3: BRU-3064 (peptide)
peptide: DO3A10CM-[d2Nal]RWSH[dR]W[Bpa4]-OH
modifications: reading uncertain; also: printed as DO3A10CM-Dnal2-Arg-Trp-Ser-His-Darg-Trp-Bpa4-OH
- EC50 [4]: 720 nM

Molecule: {DO3A10CM″}-[Sar]WS[Tha][dR]W[Bpa]P[azaGly]-NH2 (reading uncertain) [BRU-2740]
- EC50 [7]: 5530 nM

Molecule: DO3A10CM-[Sar]KWSH[dR]W[Bpa]P[azaGly]-NH2 (reading uncertain, AA2 Lys) [BRU-2871]
- EC50 [6]: 10000 nM

Molecule: XFWSHXWXPX (DO3A10CM on N-terminus; AA1 Sar; AA6 Darg; AA8 Bpa4; AA10 azaGly-NH2, AA2 Phe) [BRU-2738]
- EC50 [6]: 1220 nM

Molecule: DO3A10CM-[d2Nal]RWSA[dR]W[Bpa]P[azaGly]-NH2 (reading uncertain, AA5 Ala) [BRU-3028]
- EC50 [7]: 1090 nM

Molecule: FHWSHXWXPX (DO3A10CM on N-terminus; AA6 Darg; AA8 Bpa4; AA10 azaGly-NH2, AA1 Phe) [BRU-2735]
- EC50 [6]: 1140 nM

Molecule: GGHWSHXWXPX (DO3A10CM-Gly (linker) on N-terminus; AA6 Darg; AA8 Bpa4; AA10 azaGly-NH2, AA1 Gly) [BRU-2795]
- EC50 [6]: 1370 nM

Molecule: {DO3A10CM(3)}-[Sar]HWSY[dR]W[Bpa]P[azaGly]-NH2 (AA5 Tyr) [BRU-2668]
- EC50 [7]: 3470 nM
